Laboratory results reported in paper PMC9237115, “Hsp multichaperone complex buffers pathologically modified Tau” (Nature Communications, 2022).

Molecular target: T1, Full-length human Tau (MAPT) (human, UniProt P10636-8 1-441)
T1 construct: Tau (MAPT), human, full length; 15N-labelled for the HSQC NMR experiments; also called unmodified Tau; source: E. coli BL21 (DE3), pNG2 vector, purified (boiling, ammonium sulfate, cation exchange, gel filtration)
Assay: NMR titration; 2D 1H-15N HSQC of 24 µM 15N-labelled Tau (or PTau^Cdk2), 5 °C, 25 mM HEPES pH 7.4/100 mM KCl/5 mM MgCl2/1 mM TCEP; chaperones added
Conditions: both partners purified

T1 sequence (P10636 other isoform, or with tags, fused parts or gaps): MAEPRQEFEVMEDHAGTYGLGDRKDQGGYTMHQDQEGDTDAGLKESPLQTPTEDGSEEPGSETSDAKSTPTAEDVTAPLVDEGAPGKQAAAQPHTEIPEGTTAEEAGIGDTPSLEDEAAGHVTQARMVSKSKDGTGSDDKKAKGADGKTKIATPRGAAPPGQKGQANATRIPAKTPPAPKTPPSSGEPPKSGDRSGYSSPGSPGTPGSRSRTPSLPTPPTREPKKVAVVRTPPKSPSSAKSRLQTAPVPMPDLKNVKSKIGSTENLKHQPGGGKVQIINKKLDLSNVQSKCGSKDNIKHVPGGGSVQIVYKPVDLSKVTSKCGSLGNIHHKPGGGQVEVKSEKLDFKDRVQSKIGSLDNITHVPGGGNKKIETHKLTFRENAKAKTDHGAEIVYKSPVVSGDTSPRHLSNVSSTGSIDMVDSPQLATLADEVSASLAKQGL

- binding result: binds
B1: p23 (PTGES3) (natural protein, human, UniProt Q15185 1-160, looked up)
chain: MQPASAKWYDRRDYVFIEFCVEDSKDVNVNFEKSKLTFSCLGGSDNFKHLNEIDLFHCIDPNDSKHKRTDRSILCCLRKGESGQSWPRLTKERAKLNWLSVDFNNWKDWEDDSDEDMSNFDRFSEMMNNMGGDEDVDLPEVDGADDDSQDSDDEKMPDLE
notes: p23 (PTGES3), human, full-length DNA in pET28a; source: E. coli Rosetta 2 (DE3), purified (Ni-NTA, thrombin cleavage, SEC); not shown: His6, N-terminal, cleaved
